# Assay results as given in IntAct's records for PubMed 16888620.
# Molecular target: sgk3_human SGK3 (UniProt Q96BR1)
# Sequence (Q96BR1 whole entry): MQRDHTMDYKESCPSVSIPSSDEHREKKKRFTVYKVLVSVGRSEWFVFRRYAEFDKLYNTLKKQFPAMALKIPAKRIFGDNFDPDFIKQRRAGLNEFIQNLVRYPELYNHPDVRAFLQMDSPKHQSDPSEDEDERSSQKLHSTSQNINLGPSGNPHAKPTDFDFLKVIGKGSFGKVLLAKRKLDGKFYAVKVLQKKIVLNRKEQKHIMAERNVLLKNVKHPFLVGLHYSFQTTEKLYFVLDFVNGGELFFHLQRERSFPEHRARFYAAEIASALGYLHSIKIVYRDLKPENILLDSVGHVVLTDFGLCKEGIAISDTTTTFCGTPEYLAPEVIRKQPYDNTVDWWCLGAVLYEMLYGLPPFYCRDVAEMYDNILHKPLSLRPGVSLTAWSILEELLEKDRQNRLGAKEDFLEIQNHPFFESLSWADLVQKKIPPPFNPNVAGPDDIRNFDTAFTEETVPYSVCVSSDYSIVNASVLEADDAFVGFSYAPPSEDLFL
row,effect of a mutation on the interaction,Substance
1,decreasing interaction strength,"E3 ubiquitin-protein ligase Itchy homolog (Homo sapiens), Q96J02 T385A"
2,disrupting interaction strength,"E3 ubiquitin-protein ligase Itchy homolog (Homo sapiens), Q96J02 S450A"
